Among the data in patent US20190070251A1 are Ki, EC50 (nM) of agonist activation and Fold change compared to metastin values, retold here.

The target in experiment [1] is human µ opioid receptor (human), P35372. In words: radioligand competition with [3H]naloxone (5 nM), membranes of CHO-K1 cells with recombinant human µ opioid receptor; Ki by Cheng-Prusoff; sample diluted on the day of the assay (unreleased).
Experiment [2] has the same target. As to the kind of experiment: radioligand competition with [3H]naloxone (5 nM), membranes of CHO-K1 cells with recombinant human µ opioid receptor; Ki by Cheng-Prusoff; sample pre-incubated 72 h at 37 C, pH 7.5 (partly released biphalin). A general note: Displacement assays read how much labelled ligand stays bound in the presence of the test substance.
Experiment [3] shares this target. In words: radioligand competition with [3H]naloxone (5 nM), membranes of CHO-K1 cells with recombinant human µ opioid receptor; Ki by Cheng-Prusoff; sample pre-incubated 20 h at 37 C, pH 7.5 (partly released biphalin).
For experiment [4], the target named is GPR54 G-Protein coupled receptor (cloned human GPR54) (human) (UniProt Q969F8). As to the kind of experiment: cell-based or functional assay.
For experiment [5], the target named is human µ opioid receptor (human), P35372. As to the kind of experiment: radioligand competition with [3H]naloxone (5 nM), membranes of CHO-K1 cells with recombinant human µ opioid receptor; Ki by Cheng-Prusoff.
The target is the same in experiment [6]. The experiment is described as above. The source holds these as a separate data set.
Experiment [7] shares this target. As to the kind of experiment: radioligand competition with [3H]naloxone (5 nM), membranes of CHO-K1 cells with recombinant human µ opioid receptor; Ki by Cheng-Prusoff; sample pre-incubated 72 h at 37 C, pH 7.5.

human µ opioid receptor (human), P35372, sequence (P35372 whole entry): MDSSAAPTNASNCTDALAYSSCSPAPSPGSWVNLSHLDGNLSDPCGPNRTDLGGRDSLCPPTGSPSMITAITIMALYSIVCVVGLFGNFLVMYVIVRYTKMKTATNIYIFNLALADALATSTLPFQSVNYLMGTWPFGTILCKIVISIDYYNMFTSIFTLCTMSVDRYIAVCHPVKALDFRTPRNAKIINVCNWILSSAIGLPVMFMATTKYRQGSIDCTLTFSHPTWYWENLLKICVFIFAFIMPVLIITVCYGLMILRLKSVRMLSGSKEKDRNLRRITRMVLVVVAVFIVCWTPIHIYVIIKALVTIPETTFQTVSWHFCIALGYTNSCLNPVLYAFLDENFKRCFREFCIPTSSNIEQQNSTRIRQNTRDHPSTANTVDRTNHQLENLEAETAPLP

For YAGF (modifications not checked) [Di-CAC-PEG2-FMOC-NHS-20K-biphalin], the Ki in experiment [1] is 1120 nM; in experiment [2], 13.7 nM.

As to YAGF (modifications not checked) [Di-C2-PEG2-FMOC-NHS-20K-biphalin], the Ki was determined as 21.7 nM in experiment [1] and 10.1 nM in experiment [3].

With LPNYNWNSFGLRF (C-terminal amide (-NH2)) [Kisspeptin-13], in experiment [4], the EC50 (nM) of agonist activation at GPR54 (FLIPR calcium flux) came out at 11 nM and the Fold change compared to metastin came out at 1 fold.

B1: Kisspeptin-54 (peptide)
peptide: GTSLSPPPESSGSPQQPGLSAPHSRQIPAPQGAVLVQREKDLPNYNWNSFGLRF
modifications: C-terminal amide (-NH2)
For the molecule B1, in experiment [4], the EC50 (nM) of agonist activation at GPR54 (FLIPR calcium flux) is 190 nM and the Fold change compared to metastin turned out to be 16 fold.

In the case of YAGF (modifications not checked) [Biphalin], the results for the Ki in experiment [5], in experiment [6] and in experiment [7] were 3.4 nM, 4.7 nM and 3.1 nM, respectively.

A word on the Ki: it is the equilibrium dissociation constant of an inhibitor or competing ligand from its target.
